Results from article doi:10.1101/2020.03.27.011510 (bioRxiv, 2020).

Tests used:
BIR1 C12A/S87A/N28C-GdI = BIR1 C12A/S87A/N28C-GdI (UniProt P98170); experiment: DEER
DEER [1] = target: the molecule itself; experiment: DEER
NMR titration = target: the molecule itself; experiment: NMR titration
DEER [2] = target: the molecule itself; experiment: DEER; remark: listed apart in the source

Molecule “BIR1 C12A/S87A/N28C-GdI (from UniProt P98170 10-99) (domain or fragment)” has a Kd (BIR1 C12A/S87A/N28C-GdI) of 97.5 µM.

B1: WT BIR1 C12-GdI (first baculoviral IAP repeat domain of XIAP, spin-labelled at C12 with BrPSPy-DO3A-Gd3+) (domain or fragment)
chain: KTCVPADINKEEEFVEEFNRLKTFANFPSGSPVSASTLARAGFLYTGEGDTVRCFSCHAAVDRWQYGDSAVGRHRKVSPNCRFINGFYLE
modifications: BrPSPy-DO3A-Gd3+ (GdI) spin label on C12 via a thioether bond
B1 was tested, and the Kd (DEER [1]) was 126 ± 40 µM.

B2: WT BIR1 (first baculoviral IAP repeat domain of XIAP), without spin label (domain or fragment)
chain: KTCVPADINKEEEFVEEFNRLKTFANFPSGSPVSASTLARAGFLYTGEGDTVRCFSCHAAVDRWQYGDSAVGRHRKVSPNCRFINGFYLE
modifications: 15N isotope-labelled (NMR samples)
B2 was tested, and the Kd (NMR titration) was 4.7 ± 2 µM.

B3: BIR1 C12A/N28C-GdI (domain or fragment)
chain: KTAVPADINKEEEFVEEFCRLKTFANFPSGSPVSASTLARAGFLYTGEGDTVRCFSCHAAVDRWQYGDSAVGRHRKVSPNCRFINGFYLE
modifications: BrPSPy-DO3A-Gd3+ (GdI) spin label on C28 (N28C) via a thioether bond
For B3, the Kd (DEER [1]) was 126 ± 40 µM and the Kd (DEER [2]) was 11.3 ± 3.8 µM.

B4: BIR1 C12A/E22C-GdI (domain or fragment)
chain: KTAVPADINKEECFVEEFNRLKTFANFPSGSPVSASTLARAGFLYTGEGDTVRCFSCHAAVDRWQYGDSAVGRHRKVSPNCRFINGFYLE
modifications: BrPSPy-DO3A-Gd3+ (GdI) spin label on C22 (E22C) via a thioether bond
Molecule B4 has a Kd (DEER [1]) of 126 ± 40 µM.

B5: BIR1 C12A/K19C-GdI (domain or fragment)
chain: KTAVPADINCEEEFVEEFNRLKTFANFPSGSPVSASTLARAGFLYTGEGDTVRCFSCHAAVDRWQYGDSAVGRHRKVSPNCRFINGFYLE
modifications: BrPSPy-DO3A-Gd3+ (GdI) spin label on C19 (K19C) via a thioether bond
In the case of B5, the Kd (DEER [1]) is reported as 126 ± 40 µM.

B6: S87A BIR1 mutant, without spin label (domain or fragment)
chain: KTCVPADINKEEEFVEEFNRLKTFANFPSGSPVSASTLARAGFLYTGEGDTVRCFSCHAAVDRWQYGDSAVGRHRKVAPNCRFINGFYLE
modifications: 15N isotope-labelled (NMR samples)
B6 showed a Kd (NMR titration) of 20.3 ± 4.6 µM.

B7: BIR1 C12A/V24C-GdI (domain or fragment)
chain: KTAVPADINKEEEFCEEFNRLKTFANFPSGSPVSASTLARAGFLYTGEGDTVRCFSCHAAVDRWQYGDSAVGRHRKVSPNCRFINGFYLE
modifications: BrPSPy-DO3A-Gd3+ (GdI) spin label on C24 (V24C) via a thioether bond
With B7 the Kd (DEER [1]) was 126 ± 40 µM.
